These results are taken from patent US20250264433A1 (STATE OF ISRAEL MINISTRY OF AGRICULTURE AND RURAL …, published 2025).

This assay has as its target Native EspB of wild-type EPEC O127:H6 strain E2348/69.

Sequence of Native EspB of wild-type EPEC O127:H6 strain E2348/69 (Q05129 whole entry): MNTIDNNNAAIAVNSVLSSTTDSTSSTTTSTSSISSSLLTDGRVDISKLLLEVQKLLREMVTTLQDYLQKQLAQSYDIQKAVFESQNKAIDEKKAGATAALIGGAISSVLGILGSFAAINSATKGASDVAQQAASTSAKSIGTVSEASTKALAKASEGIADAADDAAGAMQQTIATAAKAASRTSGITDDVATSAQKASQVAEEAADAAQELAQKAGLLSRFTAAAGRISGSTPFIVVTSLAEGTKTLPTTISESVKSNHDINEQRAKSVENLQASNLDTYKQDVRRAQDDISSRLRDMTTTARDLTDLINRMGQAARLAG

B1: mAb-EspB-B7 (antibody, V domains shown)
VH: EVQLLESGGGLVQPGGSLRLSCAASGFTFSHYAMNWVRQAPGKGLEWVSAINSNGDSTYYPDTVKDRFTISRDNSKNTLYLQMNSLRAEDTAVYYCARDRRAGYFDYWGQGTLVTVSS
VL: DIVLTQPPSASGTPGQRVTISCSGSRDNIGKNYVSWYQQLPGTAPKLLIYRNNQRPSGVPDRFSGSKSGTSASLAISGLRSEDEADYYCSAWDTSLNAYVFGPGTQLTVL
notes: also called mAb-B7; anti-EspB antibody
In the case of B1, the “signal for EPEC WT relative to the ΔespB strain” value came out at 36%.
